What was measured:
[1] = molecular target: the molecule itself; test: AUC; sedimentation velocity, 20 °C, 42,000 rpm, 50 mM MOPS pH 7.5, 50 mM KCl, 5 mM MgCl2, 0.5 and 2.0 mg/mL protein, with 20 mM ADP (preincubated 55 °C 1 min)
[2] = molecular target: the molecule itself; test: AUC; sedimentation velocity, 20 °C, 42,000 rpm, 50 mM MOPS pH 7.5, 50 mM KCl, 5 mM MgCl2, 0.5 and 2.0 mg/mL protein, with 20 mM ATP (preincubated 55 °C 1 min)
[3] = molecular target: the molecule itself; test: AUC; sedimentation velocity, 20 °C, 42,000 rpm, 50 mM MOPS pH 7.5, 50 mM KCl, 5 mM MgCl2, 0.5 and 2.0 mg/mL protein, with 2 mM ATPγS (preincubated 55 °C 1 min)
[4] = molecular target: the molecule itself; test: native MS; incubated at 55 °C with 2 mM ATP or ATPγS for 1 min, exchanged into 150 mM ammonium acetate pH 7.5 with 100 µM ATP or ATPγS at 4 °C; nanoflow electrospray

B1: Full-length T. thermophilus ClpB (TClpB) (natural protein)
chain: not shown
notes: ClpB of Thermus thermophilus, full length, expressed from plasmid pMCB1; The protomer; it assembles into oligomers of varying size depending on the nucleotide; also called full-length TClpB; source: E. coli BL21(DE3) or KRX carrying pMCB1, purified
stoichiometry N [1]: < 6
stoichiometry N [2]: 3
stoichiometry N [3]: 6
stoichiometry N [4]: 2
